Laboratory results taken from PMC2199621 (The Journal of Cell Biology, 2001).

Assays:
[1] = molecular target: 6× his-S–tagged importin β (UniProt Q14974 1-876); assay: ELISA
[2] = molecular target: importin β–IBB domain complex (UniProt Q14974 1-876; P52292 2-60); assay: ELISA
Chain of importin β–IBB domain complex (Q14974 whole entry, chain 1 of 2, other chains not shown, the tested form may be a part): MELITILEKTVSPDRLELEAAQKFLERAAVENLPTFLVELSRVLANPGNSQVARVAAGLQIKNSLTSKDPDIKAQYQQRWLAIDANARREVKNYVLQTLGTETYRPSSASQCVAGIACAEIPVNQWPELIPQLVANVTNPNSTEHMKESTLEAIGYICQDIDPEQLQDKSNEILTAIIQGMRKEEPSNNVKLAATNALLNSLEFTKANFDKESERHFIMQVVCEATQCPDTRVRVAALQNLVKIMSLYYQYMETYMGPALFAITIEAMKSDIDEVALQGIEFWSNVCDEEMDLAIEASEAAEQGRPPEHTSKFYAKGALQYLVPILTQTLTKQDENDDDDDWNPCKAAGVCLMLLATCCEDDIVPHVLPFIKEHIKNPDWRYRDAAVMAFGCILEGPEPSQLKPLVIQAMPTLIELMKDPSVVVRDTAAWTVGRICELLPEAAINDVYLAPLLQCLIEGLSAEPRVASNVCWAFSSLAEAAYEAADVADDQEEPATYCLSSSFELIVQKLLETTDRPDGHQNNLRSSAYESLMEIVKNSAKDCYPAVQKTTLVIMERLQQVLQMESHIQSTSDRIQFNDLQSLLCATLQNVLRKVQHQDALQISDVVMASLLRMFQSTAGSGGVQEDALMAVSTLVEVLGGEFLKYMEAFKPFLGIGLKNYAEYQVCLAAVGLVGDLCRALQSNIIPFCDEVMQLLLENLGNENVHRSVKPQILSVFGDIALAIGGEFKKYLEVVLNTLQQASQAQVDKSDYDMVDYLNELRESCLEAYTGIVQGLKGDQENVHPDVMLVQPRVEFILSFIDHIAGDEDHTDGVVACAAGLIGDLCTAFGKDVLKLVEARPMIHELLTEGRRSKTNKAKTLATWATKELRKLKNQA

Chain of 6× his-S–tagged importin β (Q14974 whole entry, the tested form may be a part): as the sequence (Q14974 whole entry, chain 1 of 2, other chains not shown, the tested form may be a part) above

B1: GST-tagged Nup54 (natural protein, UniProt P70582 1-510, looked up)
chain: MAFNFGAPSGTSGTSTATAAPAGGFGGFGTTTTTAGSAFSFSAPTNTGSTGLLGGTQNKGFGFGTGFGTSTGTGTGLGTGLGTGLGFGGFNTQQQQQQQQTSLGGLFSQPAQAPAQSNQLINTASALSAPTLLGDERDAILAKWNQLQAFWGTGKGYFNNNIPPVEFTQENPFCRFKAVGYSCMPNNKDEDGLVVLIFNKKETDIRSQQQQLVESLHKVLGGNQTLTVNVEGIKTLPDDQTEVVIYIVERSPNGTSRRVPATTLYAHFEQANIKTQLQQLGVTLSMTRTELSPAQIKQLLQNPPAGVDPIIWEQAKVDNPDSEKLIPVPMVGFKELLRRLKVQDQMTKQHQTRLDIISEDISELQKNQTTTMAKIAQYKRKLMDLSHRTLQVLIKQEIQRKSGYAIQAEEEQLRVQLDTIQGELNAPTQFKGRLNELMSQIRMQNHFGAVKSEEKYYIDADLLREIKQHLKQQQEGLSHLISIIKDDLEDIKLVEHGLNETIHSRGGVFS
Kd [1]: 112 ± 6.5 nM
Kd [2]: 108 ± 8.5 nM

B2: 6× his–tagged COOH-terminal segment of human Nup153 comprising amino acids 609–1475 (domain or fragment, UniProt P49790 609-1475, looked up)
chain: LDILKSPGFASPKIDSVAAQPTATSPVVYTRPAISSFSSSGIGFGESLKAGSSWQCDTCLLQNKVTDNKCIACQAAKLSPRDTAKQTGIETPNKSGKTTLSASGTGFGDKFKPVIGTWDCDTCLVQNKPEAIKCVACETPKPGTCVKRALTLTVVSESAETMTASSSSCTVTTGTLGFGDKFKRPIGSWECSVCCVSNNAEDNKCVSCMSEKPGSSVPASSSSTVPVSLPSGGSLGLEKFKKPEGSWDCELCLVQNKADSTKCLACESAKPGTKSGFKGFDTSSSSSNSAASSSFKFGVSSSSSGPSQTLTSTGNFKFGDQGGFKIGVSSDSGSINPMSEGFKFSKPIGDFKFGVSSESKPEEVKKDSKNDNFKFGLSSGLSNPVSLTPFQFGVSNLGQEEKKEELPKSSSAGFSFGTGVINSTPAPANTIVTSENKSSFNLGTIETKSASVAPFTCKTSEAKKEEMPATKGGFSFGNVEPASLPSASVFVLGRTEEKQQEPVTSTSLVFGKKADNEEPKCQPVFSFGNSEQTKDENSSKSTFSFSMTKPSEKESEQPAKATFAFGAQTSTTADQGAAKPVFSFLNNSSSSSSTPATSAGGGIFGSSTSSSNPPVATFVFGQSSNPVSSSAFGNTAESSTSQSLLFSQDSKLATTSSTGTAVTPFVFGPGASSNNTTTSGFGFGATTTSSSAGSSFVFGTGPSAPSASPAFGANQTPTFGQSQGASQPNPPGFGSISSSTALFPTGSQPAPPTFGTVSSSSQPPVFGQQPSQSAFGSGTTPNSSSAFQFGSSTTNFNFTNNSPSGVFTFGANSSTPAASAQPSGSGGFPFNQSPAAFTVGSNGKNVFSSSGTSFSGRKIKTAVRRRK
Kd [1]: 9 ± 2.5 nM
Kd [2]: 9.4 ± 3 nM

B3: Nup358-4 (amino acids 2500–3224) (domain or fragment, UniProt P49792 2500-3224, looked up)
chain: TSETTPKAVVSPPKFVFGSESVKSIFSSEKSKPFAFGNSSATGSLFGFSFNAPLKSNNSETSSVAQSGSESKVEPKKCELSKNSDIEQSSDSKVKNLFASFPTEESSINYTFKTPEKAKEKKKPEDSPSDDDVLIVYELTPTAEQKALATKLKLPPTFFCYKNRPDYVSEEEEDDEDFETAVKKLNGKLYLDGSEKCRPLEENTADNEKECIIVWEKKPTVEEKAKADTLKLPPTFFCGVCSDTDEDNGNGEDFQSELQKVQEAQKSQTEEITSTTDSVYTGGTEVMVPSFCKSEEPDSITKSISSPSVSSETMDKPVDLSTRKEIDTDSTSQGESKIVSFGFGSSTGLSFADLASSNSGDFAFGSKDKNFQWANTGAAVFGTQSVGTQSAGKVGEDEDGSDEEVVHNEDIHFEPIVSLPEVEVKSGEEDEEILFKERAKLYRWDRDVSQWKERGVGDIKILWHTMKNYYRILMRRDQVFKVCANHVITKTMELKPLNVSNNALVWTASDYADGEAKVEQLAVRFKTKEVADCFKKTFEECQQNLMKLQKGHVSLAAELSKETNPVVFFDVCADGEPLGRITMELFSNIVPRTAENFRALCTGEKGFGFKNSIFHRVIPDFVCQGGDITKHDGTGGQSIYGDKFEDENFDVKHTGPGLLSMANQGQNTNNSQFVITLKKAEHLDFKHVVFGFVKDGMDTVKKIESFGSPKGSVCRRITITECGQI
Kd [1]: 225 ± 14.4 nM
Kd [2]: 220 ± 16 nM

B4: GST-tagged Nup62 (natural protein, UniProt P17955 1-525, looked up)
chain: MSGFNFGGTGAPAGGFTFGTAKTATTTPATGFSFSASGTGTGGFNFGTPSQPAATTPSTSLFSLATQTSTTQTPGFNFGTTPASGGTGFSLGISTPKLSLSSTAATPATANTGSFGLGSSTLTNAISGASTSSQGTAPTGFVFGSSTTSAPSTGTTGFSFTSGSASQPGASGFNIGSVGSLAQPTALSGSPFTPATLATTTAGATQPAAATPTAATTSAGSTLFASIAAAPASSSTTVLSLSAPATTAATPTAGTLGFSLKAPGAAPGASTTSTTTTTTTTTTTASTSSSTTTTGFALSLKPLVPAGPSSVAATALPASSTAVGTTTGPAMTYAQLESLINKWSLELEDQERHFLQQATQVNAWDRTLIENGEKITSLHREVEKVKLDQKRLDQELDFILSQQKELEDLLSPLEESVKEQSGTIYLQHADEEREKTYKLAENIDAQLKRMAQDLKDIIEHLNMAGGPADTSDPLQQICKILNAHMDSLQWVDQSSALLQRRVEEASRVCESRRKEQERSLRIAFD
Kd [1]: 100 ± 8 nM
Kd [2]: 105 ± 6 nM

B5: GST-tagged Nup58 (natural protein, UniProt P70581 1-585, looked up)
chain: MATGFSFGSGTLGSTTVAPGGTGTGSGFSFGASSTPSVGLNFGTLGSSATPASTSTSASGFGTGLFGSKPGTGFTLGGTSAGTTATTSASTTGFSLGFSKPAASATPFALPVTSTTASGLTLSSALTSAPAASTGFTLNNLGATPATTTAASTGLSLGGALAGLGGSLFQSGNTATSGLGQNALSLSLGTATPTSAASSEGLGGIDFSTSSDKKSDKTGTRPEDSKALKDENLPPVICQDVENLQKFVKEQKQVQEEISRMSSKAMLKVQEDIKALKQLLSLAASGLQRNTLNIDKLKLETAQELKNAEIALRTQKTPPGLQHENTAPADYFRVLVQQFEVQLQQYRQQIEELENHLATQANNSHITPQDLSMAMQKIYQTFVALAAQLQSIHENVKVLKEQYLSYRKMFLGDAGDVFEARRTEAKKWQNAPRVTTGPTPFSTMPNAAAVAMAATLTQQQQPATGPQPSLGVSFGTPFGSGIGTGLQSSGLGSSNLGGFGTSSGFGCGTTGASTFGFGTTDKPSGSLSAGFGSSSTSGFNFSNPGITASAGLTFGVSNPASAGFGTGGQLLQLKRPPAGNKRGKR
Kd [1]: 101 ± 2 nM
Kd [2]: 107 ± 8 nM
